Values quoted from earlier work as cited in US9119806B2, “Culturing circular ssDNA viruses for the production of vaccines” (priority 2007, dated 2015).

Test system: EMC virus
Details: porcine PK-15 cells infected with EMC virus; supplier leaflet, typical; cited from earlier work

B1: IFN-gamma: Porcine interferon gamma purchased from R&D systems (protein, UniProt P17803 24-166, looked up)
Interferon gamma: QAPFFKEITILKDYFNASTSDVPNGGPLFLEILKNWKEESDKKIIQSQIVSFYFKFFEIFKDNQAIQRSMDVIKQDMFQRFLNGSSGKLNDFEKLIKIPVDNLQIQRKAISELIKVMNDLSPRSNLRKRKRSQTMFQGQRASK
ED50 for anti-viral effect: 0.015 to 0.045 ng/mL
